Data on two substances can be found in patent US20230242586A1, “RAS INHIBITORS AND USES THEREOF” (The Regents of the University of California, priority 2020, published 2023).

In the assay the target is biotinylated wildtype K-Ras·GppNHp (His-Avi-TEV-KRAS (wildtype)) (human). As to the kind of experiment: TR-FRET Ras-Raf interaction assay (competition); reference K-Ras(G12D).

The substance “bicyclic variant of KD2 (Val3 and Arg9 replaced with two cysteines) (peptide)” returned a fold IC50 on wildtype K-Ras against that for K-Ras(G12D) of more than 20 fold. Next, “bicyclic variant of KD2 (Val3 and Arg9 replaced with azidoalanine and propargylglycine) (peptide)”: more than 20 fold.
